Reference: US20190119406

Molecular target: T1, Mutant OB chain (short chain, hinge-CH2-CH3 with T394D, P395D, P396D) [IgG part: P01857]
T1 chain: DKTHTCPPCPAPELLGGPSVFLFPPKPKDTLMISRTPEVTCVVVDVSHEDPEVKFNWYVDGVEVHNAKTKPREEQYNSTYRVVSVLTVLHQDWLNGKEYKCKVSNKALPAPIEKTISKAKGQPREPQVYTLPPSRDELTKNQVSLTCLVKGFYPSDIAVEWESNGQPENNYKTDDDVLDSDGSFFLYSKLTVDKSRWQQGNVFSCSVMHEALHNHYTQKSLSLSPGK
Assay: co-transfection of OA and OB in HEK293, protein A bead pull-down, SDS-PAGE (FIGS. 3, 4 and 6)

B1: Mutant OA chain (long chain, CH1-hinge-CH2-CH3 with P395K, P396K, V397K) (protein)
chain: ASTKGPSVFPLAPSSKSTSGGTAALGCLVKDYFPEPVTVSWNSGALTSGVHTFPAVLQSSGLYSLSSVVTVPSSSLGTQTYICNVNHKPSNTKVDKKVEPKSCDKTHTCPPCPAPELLGGPSVFLFPPKPKDTLMISRTPEVTCVVVDVSHEDPEVKFNWYVDGVEVHNAKTKPREEQYNSTYRVVSVLTVLHQDWLNGKEYKCKVSNKALPAPIEKTISKAKGQPREPQVYTLPPSRDELTKNQVSLTCLVKGFYPSDIAVEWESNGQPENNYKTTKKKLDSDGSFFLYSKLTVDKSRWQQGNVFSCSVMHEALHNHYTQKSLSLSPGK
- yield of heterodimer: high yield of heterodimer (above 95%)
